Laboratory results reported in the DeepSol protein solubility set.

Experiment: soluble on expression in E. coli; label from the status in PepcDB or PDB records

Sequence	soluble on expression in E. coli
MKIGIIGATGKAGSRILKEALDRGHEVTAIVRNAAKITEENVKVLEKDVFSLTSNDLQAFDVVVNAFGAPAGHDHLHVDAGNVLIEAMKGAPNTKLVVVGGAGSLFVDEEKTTRVFETPGFPEEYLATAQNQGKNLEILQQTNDITWTFISPSALFALGKRTGSYKAGKDNLLVNAKGDSYVSYEDFAVAALDEIENPKHVNERFTVVSEAE	not soluble
MKIHKTLTPWAAALLLASTAWPALAEVSTVRLAKQFGIGYLPLTLVEELDLLEKHAAASGHEITTEWLRFTGGSGMNEALLSGNLDLAAGGTGPLFTIWARTRENLKIKGVAALASMPLHLMTSNPEVKSLADFSQGDKIALPAVKTSIQAVTLQMASKQAFGPDKATAMDAFTVSMGHPDAQLALTGGQSEVTAHFGSPPFQNLEAKVEGIHKVLDSYDVLGGSHTFTVVWAADKFISENPEITKAFMAALEESMELISTNPEKAAEIWMAAERSPLSREEVVALIRDEQTVWTTTPERTLPYVEFLSESGLIKTSAEDWSEIFFDTMSGKEGS	not soluble
MKIKEVIVVEGKDDTAAIRRAVDADTIETNGAAVGADVIERIKLAKERRGVIIFTDPDFPGEKIRRTIAEQVPGCKHAFLPREAAKAKNGKGIGVEHASPDEIRRALANVYEEASDWKEEITFAELIEAGLIGGAMARRRRQRLGEELKIGYANGRQFHKRLQVFRISRDAFYAALAHVMQEEADDV	not soluble
MKILAFETSTEACSVALHVDGAVRERFELAPRRHAELALPWAEQLLAEAGISRRQLDAIAVGRGPGAFSGVRLAIGIVQGIALALDLPVLAISTLQVLALRAPAEASHVLACIDARMGEVYAGLFERQGEALLTLGSEVVCAPEAVLLPQSTPQWAGVGTGLAAGEMPLQQRFAGRLSSVDAAALPHAADLLTLALPAALRGEGVAPERVEPAYLRDNVALTLVEQQAARAAKAAAVPRLEHHHHHH	not soluble
MKILRFNEGRWGVLEGELVLETDGPGGNPTGRRYDLASVTLLPPATPTKIVCVGRNYREHIREMGHDFGEDLPKEPGLFLKGPNALARPGNPRDPWGTAEPVPYPFFTEELHYEGELAVVVGDRMRHVPPEKALDHVLGYTVAVDITARDVQKKDLQWVRAKSADKFLPLGPWLETDLNPQDTWVRTYVNGTLRQEGHTSQMIFSVAEILSYISTFMTLEPLDVVLTGTPEGVGALRPGDRLEVAVEGVGTLFTLIGPKEERPW	soluble
MKIPIPSIGHVALLASAILFASSANAASDEDGIIIYNAQHESFAKSWAEGFTKDTGIKVTLRNGKDSELGNQLIQEGSSSPADVFLTENSPAMVLVDNAKLFAPLDAATQAQVAKEYRPEDGRWTGIAARSTVFVYNPAKISEAELPKSLMDLAKPEWKGRWAASPSGADFQAIVSAMLALKGEQATLEWLKAMKTNATAYKGNSTVMKAVNAGQIDGGVIYHYYPFVDQAKTGENSGNIKLHYFKNKDPGAFVSISGAGVLASSKHPQQAQKFVQWVTGKAGQDFLRESNSAFEYAVGVNAASNPKLVPLKDLDPPKVEVSKLNSKKVVELMTEAGLL	not soluble
MKIRSTALVKGFRQSTPYVNAHRGKTMVIMLGGEAVAHNNFGNIINDIALMHSLGIKVVVVYGARPQINQLLEKQDLTTPYHKNIRITDEAALSVVMQAAGQLQLAITARLSMSLNNTPMAGTQLNVVSGNFVIAQPLGVDDGVDYCHSGRIRRIDTDAINRTLDQGSIVLLGPIASSVTGECFNLLSEEVATQLAIKLGADKLIGFCSEQGVIDDNGNAVAELLPIEAEHVIKTLSENHASDSDYNTGTLRFLKGSIAACRAGVPRSHLISYKVDGALIQELFSFDGIGTQVVMASAEQVRQAGIDDIGGILELIHPLEEQGILVRRSREQLEQEIGKFTIIEKDGLIIGCAALYPYSEERKAEMACVAIHPDYRDGNRGLLLLNYMKHRSKSENINQIFVLTTHSLHWFREQGFYEVGVDYLPGAKQGLYNFQRKSKILALDL	not soluble
MKIYVDADACPVKDVIIFEATKAEIPVTLVTSFSHYSNAEQPKGVETIYVDSGADAADYRIMQLAQKEDLIVTQDYGLASLALAKGCIVLHHKGYKYTNENIDQLLQTRYLSAMVRKSGKRTKGPKPFTAEDKEKFRALFKSMIPLLEHHHHHH	soluble
MKIYVSCDIEGLAGIATFDMEKEDTVLFRELYHQHVAWLIEGIQKSAKNEQITEITIADSHSRGLNLAYARLAEMDERISLVSGFPRMDYMMSGLDSSYDVVFFLGYHAGIGKQKGNMDHGYSASVAYDLKINDLAMNETTINAAYASELGVPVGLIIGESGLEEQLFQEKMMPEVPFVSTKESLGRYAIKNRPMQQVREAIVATTSQVLTSFALSELPRYALQTPATVKLQCVTTAQADRIEMLPMIKRIDGRTVSFVGETMKDVMNGIVAVVGLGGTSY	not soluble
MKKELLTRFMEKRIVELKKEQRNGTAHVYQSTLNRLKNFMNGREITFSQLTPEWLALFEQKLLADQLKWNTISTYMRMLRSVYNQALERGVATYVPRLFNKVHTGIDCPVKRAVSPEVICRLMTDRKPLPGKLAFSRDLFVLLFLLRGMPFVDLAFLRRCDLQGNVITYHRRKTSRKLTVVVGKEAMEIIQKYMYAIPDSPYLFPIIQNPGKDEYGQYARMLRLQNYRLTQVANILGIRDRLSTYTARHTWATTALRQNYNSSLICDAMGHSSVKVTETYFQPYRDDEVNRMNSSLITYILSKKKRGTDKKIRS	not soluble
MKKHTLALCLAAILAPAAHAAEIKVEDLTWKAITFGQSTDMNFGSTILPEKVGVNQVTVNGEAVAAGKLASTFTIESRGGKLANSHEGLTFYYTELPTDVNFTLSADVVLEQLGPETGATPNRQEGAGLMVRDILGAERLVPQPEGHEEFPSASNMVMNLMRSHTRANDGMTNINASFREGVYQPWGTPGNRLSRVDYVEGVPYGTAETYRMTLTRTNDGFKVSYRNGEKFVEQAVKGANANIVEMQNSDSQYVGFFASRNAKMTVSNVDLQLAAADTVDAPKYAAKQGELVFQIASSPRSATKEYPVQARANYSGEFEVLHNDKVVAKQTVTAGELFSQWLTLDSGANQMEVRFTAIDGPNKETQAHRYSVDVVSLPDPMTL	not soluble
MKKIDRVIESIQSRITEGRLKPGQKLPSIRQAVDEFGVSKNTVIEAYERLSARGLIRSVHGAGFFVCASTPAPLSKATQPAHIVEAVDRLTLLTAQLDQEKLPVRVGDGRPPQSWMNDALPLRMKGNIFKNFVGDPSGYGGVSGHLQLRELIAARSNRADMSVHPDQIVTTFGANHALDLIIRRYLEPGDVVLVDDPGYYPLLGKFKLAKIRAIGVPRTPTGPDLDVMETLAAAHGPKMFFTQSTCQNPTGSSMSLPVAHGVLQVAQRFGLMVIDNDPFTDLPGNAGVPLSALDAFNSVIAISSFSKLLSASFRVGYVIARPEVARELTELKLLTVVNSSRFSEMVIAELIKSQRYGRHLNKLVNRLEEARRDYHRKVRKLGLDVFCAQETGYYSFLQLPHTVDEGQLVRKASAAGIMLAPGRLFAVDENPARPALRINVTRADDPRFYRFLKRQVIDGQV	not soluble
MKKIIAILLLVIGSIGIGKDLDQYESKRVFDKIIEVALTGDYEKYKNDKEMTNALEELVKASEYLDVHRIFSDGNKYIVLDVEEQGNRSILTVKAVYKIYRDISEEKYRQIMEREVLELMKYDMEEIDEKTYKKNVYNIITDIAGNDFEIKEEVIKMNMIKKEKWDMEDNSDLIQRLYPAIFYMMESLNKRYFKTSEEGNI	not soluble
MKKILLSLLALGCFSAANAQTFRFGPTVGGNLNISDETKTKIGFAVGAKAEMNFNNPENGWFMDASVLFNNRNRQSENYFNNETKLTQCWKYSTYSLLVPVNVGYKFRLSDNLNLLAAVGPYADFGLTGTDKVTTTDAKGHSKEEKMSSNVYGDKLFNRVNFGFDAKVGVEIAKHYQLSLSYSRGFTNIFKGGLNTKAQDLQLGFSYMF	not soluble
MKKILSILLALLLSISSLGVTTSHAEEKIHIEAAAALLFDADTGKILHEQNPDELLAIASMSKLIVVYAVLEAIKEGKITWDTKVNISDYAYEVSRNNEFSNVPFEKGRQYTVRELYHSIVIFSANGSSIALAELLAGSEKNFLNLANEHAKKLGLKKYKFVNATGLNNTDLKGKHPEGTDPNAENSMSARDMGILSKAMITKYPEMLEDTKQRFRNFPDNHPKPIRMENWNWMLPGAAFAYEGTDGLKTGSSDTAGYGFTITAKRGDVRLISVIIKTKSMDERFTESRELIEYGFNNFEKQKLKVDKNNTLSVAQGKEDQVTVAPEKEITVIAKKGSKNPYKIGTEVDKSLAEDGHLVAPIKKDAKVGSITLESTDKYGFLDGSNSMKVTAKTTEEVEKANWFVLTMRSIGDFFSNLWSKVF	not soluble
MKKKIAEYEVGEQVDIFLLIKTATKGIASNGKPFLTVILQDPSGDIEAKLWDVSPEVEKQYVAETIVKVAGDILNYKGRIQLRVKQIRVANENEVTDISDFVEKAPVKKEDMVEKITQYIFEMRNPNIQRLTRHLLNKHQNEFLDYPAATKNHHEFVSGLAYHVVSMLDLAKAISNLYPSLDKDLLYAGVILHDLGKVIELSGPISTTYTLEGNLLGHISIMVNEIGKAADELQIDAEEVLILQHIVLSHHGKAEWGSPKPPLVKEAEILHYIDNLDAKMNMMDRALGRTKPGEYTERVFALDNRSFYKPSFHN	not soluble
MKKKNVVVFGGGTGLSVLLRGLKTFPVSITAIVTVADDGGSSGRLRKELDIPPPGDVRNVLVALSEVEPLLEQLFQHRFENGNGLSGHSLGNLLLAGMTSITGDFARGISEMSKVLNVRGKVLPASNRSIILHGEMEDGTIVTGESSIPKAGKKIKRVFLTPKDTKPLREGLEAIRKADVIVIGPGSLYTSVLPNLLVPGICEAIKQSTARKVYICNVMTQNGETDGYTASDHLQAIMDHCGVGIVDDILVHGEPISDTVKAKYAKEKAEPVIVDEHKLKALGVGTISDYFVLEQDDVLRHNASKVSEAILEGKPRTSSSIQAAALEHHHHHH	soluble
MKKLATLTALAGALTMAVATAAQAESKSSSTDNTATPCVGDKCVKTKAAEGKCGEGKCGADKAKSAEGKCGEGKCGADKAKSAEGKCGEGKCGSK	not soluble
MKKLLLTLVSSSLLVACSQRTESMEDKSIAPCGDKPNCISTLDEREEFTVKPFILTSSANMKAISHIASQLKGAKLVDINNDYARIECTSSVFRFVDDLELRIYGNTLIVRSESRTGYSDFGVNRKRVEKLRTLLEEKGLISQLEHHHHHH	not soluble
MKKLLSIVLGLALSAPVLANEVSFEQYVERLKQQAREEGISERILNEAFRDVEYKPRSVVADKNQPEKKLTLDEYIPRAVPEWKVKQAQSLYEKHYTELQRIGKQYGVQPRFIVALWGVESNFGAFTGNFRVIDALSTLAYEGRREEFFRKETMAALQILEQGHIAPEAMKGSWAGAMGQCQFMPSSFLNFAADGNGDGKKDIWGTRSDVFASTANYLSQSGWDDKYTWGRQVKIPKGFDHALEGRQPEKGKTLQEWSKLGVTRYDGKPLPALSDDIKAWLIMPDDEAGRIYLVYNNYNVLMKWNRSHYFALAVSHLADRIAF	not soluble
MKKLMITQEAGVATVLIKNPPVNILTIDLINELNAFILSLKDDRETKVVVFKSFHEAFFIAHLDLNVINGTSGGQAASIEFNHMIANIKAMKQLSIAVVDGVARGGGNEFVMACDLAYGTENSAFAQPELYINIPTGGQGAVQFARRLGKGKALQALLTGADFTAQQAETLNIITQFVLKAELDVFLAQLLSVIVGWEIRDIVMYKEIIAASIKDEAVGTELELRYFLERAREEKTQTIIAAFLKHGGQTEREAKDMQGIFVDTAAELSK	not soluble
